In the supplement of paper PMC10567573 one finds protein stability index data, which are given here for 72 sequences.

This series in a line: protein stability index of a GFP-peptide fusion (GPS, HEK-293T) (PSI 1-6); higher = more stable.
Where [1] appears, read: treatment: DMSO, c terminus: a fixed tail appended.
Where [2] appears, read: treatment: MLN4924 1 uM, 8 h, c terminus: a fixed tail appended.

± gives the standard deviation.
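Further: 24-mer peptide tiles fused after GFP, lentivirally expressed, FACS-sorted into six equal bins by GFP/DsRed ratio, decoded by Illumina sequencing, PSI is the read-weighted mean bin number.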

With AAAIIVYDITKEETFSTLKNWVKE [RAB22A], the protein stability index under setting [1] worked out at 2.67 ± 1.1 and the protein stability index under setting [2] is 1.95 ± 0.86.
The like results for AALTNKHSQELTNEKEKALQAQVQ [SASS6] were, in that order, 5.3 ± 0.086 and 5.46 ± 0.19.
As to AAMFGGSFVESANSEVYLPNINKI [RHOBTB1], the protein stability index is, setting by setting: under setting [1], 2.93 ± 0.23; under setting [2], 2.93 ± 0.18.
For AAVKLADFGLAIEVQGDQQAWFGF [CAMK2B], in that order: 2.33 ± 0.75 and 2.62 ± 0.77.
For AAYFLLSTNDKTVKLWKVSERDKR [PPP2R2B], the protein stability index runs as follows: under setting [1], 2.51 ± 0.51; under setting [2], 2.49 ± 0.26.
ACDELFSYLIEKVKRKKNVLRLCC [PRAME] had a protein stability index under setting [1] of 2.99 ± 0.43 and a protein stability index under setting [2] of 2.7 ± 0.61.
As for ADIISTVEFNHTGELLATGDKGGR [PPP2R2C], the protein stability index worked out at 4.52 ± 0.42 under setting [1] and 4.66 ± 0.44 under setting [2].
In the case of AEGVVLSDSPDAADSTSFDVQLGD [PPTC7], the protein stability index is, setting by setting: under setting [1], 5.4 ± 0.59; under setting [2], 5.64 ± 0.15.
Consider AEKKQELDKLRNEWASHTAALTNK [SASS6], for which the protein stability index runs as follows: under setting [1], 4.38 ± 0.26; under setting [2], 4.79 ± 0.25.
In the case of AEKLCIYTDNSIRPEELLQMELLL [CCND1], the protein stability index under setting [1] was 2.28 ± 0.078 and the protein stability index under setting [2] came out at 2.09 ± 0.36.
For AERLFENQLVGPESIAHIGDVMFT [APMAP], the protein stability index by setting is: under setting [1], 2.99 ± 0.38; under setting [2], 3.16 ± 0.31.
As for AERRRAGRLLLTLPLLRQTAGKVL [ESRRA], the protein stability index is, setting by setting: under setting [1], 2.348 ± 0.02; under setting [2], 2.27 ± 0.23.
As to AEWLLAVRSIQPEEKERIGQFVFA [AASDHPPT], the protein stability index runs as follows: under setting [1], 2.29 ± 0.15; under setting [2], 2.13 ± 0.18.
For AEYPANGSGADRIYDLNIPAFVKF [NCK2], in that order: 2.88 ± 0.33 and 2.7 ± 0.29.
As for AFADTHSCRELLRIADKFTQHNFQ [KLHL20], the protein stability index by setting is: under setting [1], 2.09 ± 0.21; under setting [2], 2.02 ± 0.28.
The like results for AFASGSDDATCRLYDLRADREVAI [GNB5] were, in that order, 3.12 ± 0.22 and 2.95 ± 0.11.
Consider AFRSDDTKGHPRAVSQPFRLSSSL [CDC14A], for which the protein stability index under setting [1] turned out to be 3.43 ± 0.2 and the protein stability index under setting [2] was 3.47 ± 0.26.
Take AFYRLADLFGWSQLIYNHITTRVN [ADD1]: the protein stability index is, setting by setting: under setting [1], 3.25 ± 0.54; under setting [2], 2.88 ± 0.35.
Take AGAARVARWRRLRLQQLRRLRGLL [FBXO33]: the protein stability index is, setting by setting: under setting [1], 3.13 ± 0.4; under setting [2], 3.74 ± 0.43.
For AGFCMFVLSLVKKHYRLQFYMFAW [CDS1], the protein stability index is, setting by setting: under setting [1], 2.05 ± 0.36; under setting [2], 2.16 ± 0.38.
As for AGGELGISLNMCLLGALVLLGLGV [PBXIP1], the protein stability index is, setting by setting: under setting [1], 2.72 ± 1; under setting [2], 2.7 ± 0.87.
For the sequence AGGFQQRQGLKYCLPLTFCIHTGL [FBXO3], the protein stability index reads like this: under setting [1], 2.58 ± 0.57; under setting [2], 2.4 ± 0.24.
As to AGPAFDSDPEISDVDEDEPGGLVG [PPFIA4], the protein stability index reads like this: under setting [1], 5.19 ± 0.56; under setting [2], 5.77 ± 0.07.
As to AGSRQALSFEVPPCNYDPEKWIQ, the protein stability index amounted to 2.69 ± 0.59 (treatment: DMSO, c terminus: native) and 3.35 ± 0.51 (treatment: MLN4924 1 uM, 8 h, c terminus: native).
Turning to AHEIERLQMEMKEDDVSFLMKHKS [TRIM35], the protein stability index by setting is: under setting [1], 4.83 ± 0.24; under setting [2], 4.67 ± 0.25.
For AIETAMEDLKGHVAETSGETIQGF [TPRG1], the protein stability index under setting [1] came to 4.82 ± 0.26 and the protein stability index under setting [2] was determined as 5.03 ± 0.3.
Consider AIGALLVCYHYYADWFMSLGVGLL [TMEM40], for which the protein stability index was 3.087 ± 0.018 under setting [1] and 2.86 ± 0.62 under setting [2].
For AKDLRAPPEQGKIFIARRSLLDEL [SOAT1], the protein stability index turned out to be 3.23 ± 0.37 under setting [1] and 3.15 ± 0.33 under setting [2].
Regarding AKPGSTEKGLPLRKTHVLLGRSHD [MFSD9], the protein stability index by setting is: under setting [1], 3.79 ± 0.23; under setting [2], 3.86 ± 0.17.
For AKPNMIISVNGDVITIKSESTFKN [FABP4], in that order: 3 ± 0.56 and 3.03 ± 0.66.
With AKVKGHRSQKHKERIRLLRQKREA [C18orf25], the protein stability index was 4.07 ± 0.57 under setting [1] and 4.38 ± 0.16 under setting [2].
The like results for AKVNILLVENDQQLQKILSIPQSS [ACSBG2] were, in that order, 2.21 ± 0.17 and 2.07 ± 0.18.
The like results for ALAAATAAAAAAASAAAATAAFTT [SPAG8] were, in that order, 3.04 ± 0.18 and 3.25 ± 0.18.
As for ALGSRGWEPFDWGRLLEALCREEP [FANCE], the protein stability index stood at 2.61 ± 0.2 under setting [1] and 2.82 ± 0.33 under setting [2].
With ALIPYVLNPSKLMEKEINGSKVTC [ATL3], the protein stability index was 2.13 ± 0.2 under setting [1] and 2.2 ± 0.39 under setting [2].
ALSGASQPGPSGAPAQRATRGFLR [RETREG3] displayed a protein stability index under setting [1] of 4.59 ± 0.16 and a protein stability index under setting [2] of 4.78 ± 0.073.
The like results for AMELKVEDPFYWVSPGVLVLLAVL [MOG] were, in that order, 2.8 ± 0.94 and 2.55 ± 0.34.
For AMEVNTSASEILYSAPPGDPLSTN [NFE2L1], in that order: 4.45 ± 0.27 and 4.55 ± 0.23.
The like results for AMPDPAGPDGHLPAVATLCDLFDR [ESRRA] were, in that order, 4.27 ± 0.23 and 4.4 ± 0.23.
For the sequence ANAAKHTQDSARVNPQDGTNTLTR [EHMT1], the protein stability index runs as follows: under setting [1], 5.13 ± 0.18; under setting [2], 5.19 ± 0.14.
ANPSIRDKEGYNSIHYAAAYGHRQ [ANKRD44] returned a protein stability index under setting [1] of 3.52 ± 0.22 and a protein stability index under setting [2] of 3.6 ± 0.3.
Consider ANRWSFEGMDRWIKKIEEHAPGVP [RAB40A], for which the protein stability index is 3.33 ± 0.26 under setting [1] and 3.4 ± 0.33 under setting [2].
Consider APADPTAREGLAAPPRRLRSRKVS [FCHO1], for which the protein stability index reads like this: under setting [1], 5.12 ± 0.16; under setting [2], 5.304 ± 0.013.
In the case of APELVERVQSVDFMRTDPVCQKLL [KLHL14], the protein stability index is, setting by setting: under setting [1], 3.85 ± 0.36; under setting [2], 4.12 ± 0.2.
APLQSVFQGQKTELNNCISMLVAG [TRIM63]: the protein stability index runs as follows: under setting [1], 2.85 ± 0.19; under setting [2], 2.88 ± 0.22.
On to APSIDLFSTDAFSSPPQGASPVPE [SNAP91], for which the protein stability index by setting is: under setting [1], 4.94 ± 0.34; under setting [2], 5.04 ± 0.21.
As for APWLSLFPPEGNMEDKEMTGPQLP [ZNF263], the protein stability index runs as follows: under setting [1], 4.27 ± 0.27; under setting [2], 4.75 ± 0.28.
For the sequence AQEKAADVQARLNRSDHGIFHSRT [FCHSD1], the protein stability index by setting is: under setting [1], 4.19 ± 0.072; under setting [2], 4.37 ± 0.48.
In turn, AQEVRPRRWKLQVLDLRKNSHQDF [PRAME] gave a protein stability index under setting [1] of 2.64 ± 0.37 and a protein stability index under setting [2] of 2.96 ± 0.31.
In the case of AQTFLFQGQPVVNRPLSLKDQQTF [TRADD], the protein stability index under setting [1] was 3.25 ± 0.26 and the protein stability index under setting [2] amounted to 3.39 ± 0.23.
For AQVFPESPESESDHEHEEADLELS [GNAS], the protein stability index reads like this: under setting [1], 5.44 ± 0.27; under setting [2], 5.46 ± 0.23.
Take ARMLFSAVEWARNIPFFPDLQITD [NR2F2]: the protein stability index is, setting by setting: under setting [1], 2.1 ± 0.21; under setting [2], 2.09 ± 0.28.
The like results for ARQATNLKVNFFFERIMKYERLAR [FBXO39] were, in that order, 2.75 ± 0.82 and 2.41 ± 0.32.
The like results for ASETFNYSAIDRVKSRGKRLALEK [PI4K2A] were, in that order, 4.22 ± 0.044 and 4.4 ± 0.26.
With ASFHHKLHHKRLAKECMLQEENKS [CBY2], the protein stability index reads like this: under setting [1], 4.1 ± 0.26; under setting [2], 4.27 ± 0.2.
ASKEEKEDWLSHALSRKKSQGLAR [FBF1]: the protein stability index is, setting by setting: under setting [1], 4.57 ± 0.18; under setting [2], 4.57 ± 0.32.
Take ASTPTPDDKLFQKLAKVYSYAHGW [CPN1]: the protein stability index by setting is: under setting [1], 2.38 ± 0.14; under setting [2], 2.33 ± 0.26.
For the sequence ATALAPLQTDHYAALLGSNSESWG [SPSB2], the protein stability index is, setting by setting: under setting [1], 3.31 ± 0.32; under setting [2], 3.28 ± 0.14.
As for ATFLVTFGNSEKPETMTCRLSNNQ [ZFYVE21], the protein stability index by setting is: under setting [1], 2.39 ± 0.15; under setting [2], 2.24 ± 0.19.
For the sequence ATQIQQLLQDKQFELALQLAEMKD [VPS39], the protein stability index is, setting by setting: under setting [1], 3.11 ± 0.32; under setting [2], 3.41 ± 0.43.
ATRVAPERLFGSAANVVSAKRNRL [ZBED1]: the protein stability index reads like this: under setting [1], 3.83 ± 0.28; under setting [2], 3.82 ± 0.14.
The like results for AVHLCNALVCQVDNDHKEAVGKMG [ZER1] were, in that order, 3.75 ± 0.23 and 3.77 ± 0.13.
On to AVNLSVSTLPSLREEEEQVRAHAP [KCNG1], for which the protein stability index reads like this: under setting [1], 3.83 ± 0.54; under setting [2], 4.21 ± 0.44.
In the case of AWKHGNIHLSAPCIYSEVMEALDL [PCMTD2], the protein stability index was 2.71 ± 0.26 under setting [1] and 2.73 ± 0.27 under setting [2].
CDPGTDPCPEDASTPRPPEASSSP [TLE6]: the protein stability index came out at 5.61 ± 0.26 under setting [1] and 5.58 ± 0.28 under setting [2].
As for CEEKAKKNANRPLLDEIVPVYRRD [ACBD3], the protein stability index runs as follows: under setting [1], 4.72 ± 0.18; under setting [2], 4.61 ± 0.55.
For CETCVGSWSIQMRQHHHQSSFPGS, in that order: 2.37 ± 0.3 and 2.34 ± 0.44.
As for CGLLPISPEALSLGEVAYHDYHGI [ADD1], the protein stability index by setting is: under setting [1], 2.18 ± 0.24; under setting [2], 2.35 ± 0.41.
The like results for CGSARPKPYDPPGEKMVAAKVKGE [ATF4] were, in that order, 4.57 ± 0.17 and 4.82 ± 0.33.
Turning to CKAFFKRSIQGHNDYICPATNQCT [ESR2], the protein stability index came to 2.15 ± 0.4 under setting [1] and 2.45 ± 0.51 under setting [2].
As to CKSGAAAKGGFSGCSAVLSGGSSS [KRT71], the protein stability index was found to be 3.26 ± 0.46 under setting [1] and 3.44 ± 0.066 under setting [2].
Turning to CLLSSNSRSLLTGGYNLASVSVWD [TLE6], the protein stability index by setting is: under setting [1], 2.4 ± 0.38; under setting [2], 2.18 ± 0.18.
